For the data set, the target named is T1, CsARF5-HIS (Cucumis sativus, UniProt A0A0A0LE69 1-948).
T1 sequence: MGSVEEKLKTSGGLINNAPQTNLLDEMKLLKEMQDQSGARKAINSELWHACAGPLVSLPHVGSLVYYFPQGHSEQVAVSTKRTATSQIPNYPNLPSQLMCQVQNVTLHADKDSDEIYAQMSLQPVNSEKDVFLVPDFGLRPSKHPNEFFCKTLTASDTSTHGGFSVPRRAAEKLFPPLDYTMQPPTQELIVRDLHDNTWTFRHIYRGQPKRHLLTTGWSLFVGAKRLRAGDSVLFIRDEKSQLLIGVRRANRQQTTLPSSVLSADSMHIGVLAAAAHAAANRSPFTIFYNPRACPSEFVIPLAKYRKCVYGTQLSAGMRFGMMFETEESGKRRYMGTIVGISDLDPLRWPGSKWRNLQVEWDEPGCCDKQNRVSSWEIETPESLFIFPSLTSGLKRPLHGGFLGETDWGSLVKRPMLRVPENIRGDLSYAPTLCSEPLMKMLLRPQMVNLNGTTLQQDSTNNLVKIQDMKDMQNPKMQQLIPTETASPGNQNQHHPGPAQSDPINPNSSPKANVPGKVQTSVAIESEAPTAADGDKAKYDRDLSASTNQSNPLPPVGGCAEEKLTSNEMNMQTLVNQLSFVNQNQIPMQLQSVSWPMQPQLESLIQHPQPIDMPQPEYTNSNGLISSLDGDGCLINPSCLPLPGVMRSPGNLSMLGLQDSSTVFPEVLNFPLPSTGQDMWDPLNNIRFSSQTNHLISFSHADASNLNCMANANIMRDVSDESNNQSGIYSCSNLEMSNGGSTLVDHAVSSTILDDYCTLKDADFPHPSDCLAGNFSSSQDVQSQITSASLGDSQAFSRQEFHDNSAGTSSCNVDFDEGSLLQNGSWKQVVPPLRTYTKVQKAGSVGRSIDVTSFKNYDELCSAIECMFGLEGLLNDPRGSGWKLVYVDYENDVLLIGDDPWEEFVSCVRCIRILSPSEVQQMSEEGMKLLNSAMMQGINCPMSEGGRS
Description: EMSA; EMSA: protein and probe incubated at 24 °C for 30 min, nondenaturing acrylamide gel; buffer, salt and pH not stated. The following applies: protein: recombinant; tags: His; label: biotin. (In general: A gel shift assay detects complexes by their altered migration in electrophoresis.)

B1: CsDREB3 promoter probe (dsDNA)
DNA 1: ATCGGGGTAAGAGACATTAAGAAACA
DNA 2: TGTTTCTTAATGTCTCTTACCCCGAT
For B1, the binding result was “binds”.

The record behind these values is article PMC8706816, “Hydrogen Sulfide Improves the Cold Stress Resistance through the CsARF5-CsDREB3 Module in Cucumber”.
